# Measurements taken from FireProtDB (doi:10.1021/bi027116n).
# “And” between values parts separate entries of the source, which are not always exact repeats. Identical values can stand only once.
# Conditions: Spinacia oleracea, reversible: no; for denaturant midpoint (higher = more stable): 20 °C, GdnHCl; for Tm: Thermal
# Chain of Ferredoxin-1, chloroplastic wild type, P00221 (P00221 whole entry): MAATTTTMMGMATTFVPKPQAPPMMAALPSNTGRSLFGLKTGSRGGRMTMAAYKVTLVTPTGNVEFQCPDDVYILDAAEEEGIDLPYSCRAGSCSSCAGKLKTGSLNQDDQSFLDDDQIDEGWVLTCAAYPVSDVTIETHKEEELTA
substance,measurement,setting,value
"Ferredoxin-1, chloroplastic wild type, P00221",denaturant midpoint (higher = more stable),"pH 7, Absorbance, phosphate",2.1 M and 1.7 M and 1.5 M
same,denaturant midpoint (higher = more stable),"pH 7, CD, phosphate",2.1 M and 1.6 M
same,denaturant midpoint (higher = more stable),"pH 7, Emission, phosphate",1.6 M
same,Tm,"pH 7, Absorbance, Phosphate",70 °C
same,denaturant midpoint (higher = more stable),"pH 10, Absorbance, Glycine-OH",3 M and 1.5 M
same,denaturant midpoint (higher = more stable),"pH 10, CD, Glycine-OH",1.6 M
same,denaturant midpoint (higher = more stable),"pH 10, Emission, Glycine-OH",1.6 M
same,Tm,"pH 10, Absorbance, Glycine-OH",53 °C
